Series [1] addresses T1, neutrophil elastase (hNE) (Homo sapiens) (UniProt P08246).
T1 sequence: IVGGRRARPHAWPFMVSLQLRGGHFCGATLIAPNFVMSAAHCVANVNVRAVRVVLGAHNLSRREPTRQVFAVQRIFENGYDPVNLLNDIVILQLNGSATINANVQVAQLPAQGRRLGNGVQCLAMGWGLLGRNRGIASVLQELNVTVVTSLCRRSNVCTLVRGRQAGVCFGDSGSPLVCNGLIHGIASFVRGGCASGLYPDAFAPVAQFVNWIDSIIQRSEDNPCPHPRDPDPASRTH
Kind of series: inhibition.

The target in series [2] is bradykinin, N-bromoacetylated (BrBK) (UniProt P01042). The following applies: 5'-GMPS (5' guanosine monophosphorothioate).

The source of these data is patent US5998142.

bradykinin, N-bromoacetylated (BrBK), sequence (P01042 whole entry, looked up): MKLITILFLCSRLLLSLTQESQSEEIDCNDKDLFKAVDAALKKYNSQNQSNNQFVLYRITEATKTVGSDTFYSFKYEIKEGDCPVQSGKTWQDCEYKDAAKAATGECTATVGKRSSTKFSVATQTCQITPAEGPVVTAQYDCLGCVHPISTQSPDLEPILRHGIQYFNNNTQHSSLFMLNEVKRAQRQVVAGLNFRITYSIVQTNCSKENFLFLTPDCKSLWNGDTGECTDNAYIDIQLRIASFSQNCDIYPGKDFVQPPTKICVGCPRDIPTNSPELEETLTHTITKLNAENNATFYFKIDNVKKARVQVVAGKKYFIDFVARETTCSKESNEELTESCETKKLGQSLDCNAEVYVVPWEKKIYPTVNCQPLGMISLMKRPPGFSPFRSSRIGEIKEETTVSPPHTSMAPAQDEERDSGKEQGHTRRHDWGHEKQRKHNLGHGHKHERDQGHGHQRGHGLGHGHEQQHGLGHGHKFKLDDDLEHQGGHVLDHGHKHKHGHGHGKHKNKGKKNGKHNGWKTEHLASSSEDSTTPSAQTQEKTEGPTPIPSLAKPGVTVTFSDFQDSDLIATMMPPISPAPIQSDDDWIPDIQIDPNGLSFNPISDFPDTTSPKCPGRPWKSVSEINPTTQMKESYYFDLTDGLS

Regarding “GGGAGGACGAUGCGGNNNNNNNNNNNNNNNNNNNNNNNNNNNNNNNNNNNNNNNNCAGACGACGAGCGGGA [40N7.1 ssDNA pool]”, in series [1] (kinact/KI, pool, room temperature), the activity stood at 1.86e+06 M⁻¹ min⁻¹.
In the case of “GGGAGGACGATGCGGACCACAGCCACTAGNNGCATCGTCCTCTGCGTCCAGACGACGAGCGGGA [ED21]”, in series [1] (kinact/KI, room temperature), the activity is 3.2e+06 M⁻¹ min⁻¹.
In the case of “GGGAGGACGAUGCGGNNNNNNNNNNNNNNNNNNNNNNNNNNNNNNNNNNNNNNNNCAGACGACGAGCGGGA [40N7.1 rd0 RNA:DNA:valP]”, the activity in series [1] (2'-NH2 U and C, kinact/[I], unit not given, pool, 37 C) was 290000.
On to “GGGAGGACGATGCGGCAGNNGGNNCAGGTAATGTGAGTAACCTCTACTACTCTGCAGACGACGAGCGGGA [ED15]”, for which the activity in series [1] (kinact/KI, room temperature) was found to be 4.8e+08 M⁻¹ min⁻¹.
“GGGAGCUCAGAAUAAACGCUCAANNNNNNNNNNNNNNNNNNNNNNNNNNNNNNUUCGACAUGAGGCCCGGAUCCGGC [30N1 pool]” registered a K half in series [2] of 13 mM.
